Experimental data as given in article PMC6510891, “Functional duplication of Rap1 in methylotrophic yeasts”.

Assays:
[1] = biological target: T1, HpRap1B (Hansenula polymorpha DL-1, UniProt W1QDN2 1-576); assay: competition SPR; score ++ vs PICKU surface; SPR: 10 mM HEPES-NaOH pH 7.5, 150 mM NaCl, 0.5 mM DTT, 0.05% Tween 20, 1 mg/ml BSA, 0.02 mg/ml salmon sperm DNA; competition 2 nM protein with 20 or 200 nM competitor. EMSA: 20 mM HEPES-NaOH pH 7.5, 50 mM NaCl, 0.2 mg/ml BSA, 5% glycerol, 0.1 mg/ml salmon sperm DNA, room temperature; settings: protein: recombinant; blunt
T1 sequence: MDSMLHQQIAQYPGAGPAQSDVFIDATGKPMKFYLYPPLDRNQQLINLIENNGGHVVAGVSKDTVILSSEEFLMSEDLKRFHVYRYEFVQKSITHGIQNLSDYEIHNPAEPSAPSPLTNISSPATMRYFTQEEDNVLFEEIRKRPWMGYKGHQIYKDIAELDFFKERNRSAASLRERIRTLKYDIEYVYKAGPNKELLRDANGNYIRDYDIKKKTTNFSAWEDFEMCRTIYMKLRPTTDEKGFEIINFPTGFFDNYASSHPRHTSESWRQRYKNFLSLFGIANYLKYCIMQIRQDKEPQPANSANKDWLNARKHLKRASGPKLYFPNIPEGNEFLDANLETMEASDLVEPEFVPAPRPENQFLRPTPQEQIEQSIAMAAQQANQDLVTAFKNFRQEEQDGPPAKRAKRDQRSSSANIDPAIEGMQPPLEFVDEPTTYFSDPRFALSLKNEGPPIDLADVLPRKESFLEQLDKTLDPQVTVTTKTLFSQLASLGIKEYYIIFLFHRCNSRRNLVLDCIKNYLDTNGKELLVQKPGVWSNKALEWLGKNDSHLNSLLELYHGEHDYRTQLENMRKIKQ

[2] = biological target: T2, HpRap1A (Hansenula polymorpha DL-1, UniProt W1Q7Z6 1-613); assay: competition SPR; score - vs VIIrAbs surface; SPR: 10 mM HEPES-NaOH pH 7.5, 150 mM NaCl, 0.5 mM DTT, 0.05% Tween 20, 1 mg/ml BSA, 0.02 mg/ml salmon sperm DNA; competition 2 nM protein with 20 or 200 nM competitor. EMSA: 20 mM HEPES-NaOH pH 7.5, 50 mM NaCl, 0.2 mg/ml BSA, 5% glycerol, 0.1 mg/ml salmon sperm DNA, room temperature; settings: protein: recombinant; blunt
T2 sequence: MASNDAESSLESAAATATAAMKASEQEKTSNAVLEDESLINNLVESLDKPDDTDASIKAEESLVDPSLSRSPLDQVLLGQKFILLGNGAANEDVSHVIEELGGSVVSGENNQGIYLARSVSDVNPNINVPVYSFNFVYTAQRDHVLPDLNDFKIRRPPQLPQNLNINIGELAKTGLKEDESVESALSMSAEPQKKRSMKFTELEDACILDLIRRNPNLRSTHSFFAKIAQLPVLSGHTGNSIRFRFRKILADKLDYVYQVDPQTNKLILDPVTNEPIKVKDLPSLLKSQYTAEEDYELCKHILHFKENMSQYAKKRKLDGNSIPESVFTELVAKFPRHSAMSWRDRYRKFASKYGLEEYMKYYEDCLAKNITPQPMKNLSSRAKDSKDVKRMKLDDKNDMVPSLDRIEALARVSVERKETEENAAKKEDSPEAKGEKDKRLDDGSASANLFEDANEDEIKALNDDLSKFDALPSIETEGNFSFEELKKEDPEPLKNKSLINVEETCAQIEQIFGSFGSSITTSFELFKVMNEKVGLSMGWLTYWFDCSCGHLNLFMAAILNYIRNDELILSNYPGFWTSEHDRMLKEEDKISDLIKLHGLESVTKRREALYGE

[3] = biological target: T1, HpRap1B; assay: SPR; SPR: 10 mM HEPES-NaOH pH 7.5, 150 mM NaCl, 0.5 mM DTT, 0.05% Tween 20, 1 mg/ml BSA, 0.02 mg/ml salmon sperm DNA; competition 2 nM protein with 20 or 200 nM competitor. EMSA: 20 mM HEPES-NaOH pH 7.5, 50 mM NaCl, 0.2 mg/ml BSA, 5% glycerol, 0.1 mg/ml salmon sperm DNA, room temperature; settings: protein: recombinant; 3' overhang 20 nt on strand 2
[4] = biological target: T2, HpRap1A; assay: SPR; kinetic fit; SPR: 10 mM HEPES-NaOH pH 7.5, 150 mM NaCl, 0.5 mM DTT, 0.05% Tween 20, 1 mg/ml BSA, 0.02 mg/ml salmon sperm DNA; competition 2 nM protein with 20 or 200 nM competitor. EMSA: 20 mM HEPES-NaOH pH 7.5, 50 mM NaCl, 0.2 mg/ml BSA, 5% glycerol, 0.1 mg/ml salmon sperm DNA, room temperature; settings: protein: recombinant; 3' overhang 20 nt on strand 2
[5] = biological target: T2, HpRap1A; assay: SPR; SPR: 10 mM HEPES-NaOH pH 7.5, 150 mM NaCl, 0.5 mM DTT, 0.05% Tween 20, 1 mg/ml BSA, 0.02 mg/ml salmon sperm DNA; competition 2 nM protein with 20 or 200 nM competitor. EMSA: 20 mM HEPES-NaOH pH 7.5, 50 mM NaCl, 0.2 mg/ml BSA, 5% glycerol, 0.1 mg/ml salmon sperm DNA, room temperature; settings: protein: recombinant; 3' overhang 20 nt on strand 2
[6] = biological target: T1, HpRap1B; assay: competition SPR; score - vs PICKU surface; SPR: 10 mM HEPES-NaOH pH 7.5, 150 mM NaCl, 0.5 mM DTT, 0.05% Tween 20, 1 mg/ml BSA, 0.02 mg/ml salmon sperm DNA; competition 2 nM protein with 20 or 200 nM competitor. EMSA: 20 mM HEPES-NaOH pH 7.5, 50 mM NaCl, 0.2 mg/ml BSA, 5% glycerol, 0.1 mg/ml salmon sperm DNA, room temperature; settings: protein: recombinant; blunt
[7] = biological target: T2, HpRap1A; assay: competition SPR; score +++ vs VIIrAbs surface; SPR: 10 mM HEPES-NaOH pH 7.5, 150 mM NaCl, 0.5 mM DTT, 0.05% Tween 20, 1 mg/ml BSA, 0.02 mg/ml salmon sperm DNA; competition 2 nM protein with 20 or 200 nM competitor. EMSA: 20 mM HEPES-NaOH pH 7.5, 50 mM NaCl, 0.2 mg/ml BSA, 5% glycerol, 0.1 mg/ml salmon sperm DNA, room temperature; settings: protein: recombinant; blunt
[8] = biological target: T1, HpRap1B; assay: SPR; kinetic fit; SPR: 10 mM HEPES-NaOH pH 7.5, 150 mM NaCl, 0.5 mM DTT, 0.05% Tween 20, 1 mg/ml BSA, 0.02 mg/ml salmon sperm DNA; competition 2 nM protein with 20 or 200 nM competitor. EMSA: 20 mM HEPES-NaOH pH 7.5, 50 mM NaCl, 0.2 mg/ml BSA, 5% glycerol, 0.1 mg/ml salmon sperm DNA, room temperature; settings: protein: recombinant; 3' overhang 20 nt on strand 2

B1: PICME (dsDNA)
DNA 1: TAGAACTAGGTGTGCGGGGTATAATAG
DNA 2: CTATTATACCCCGCACACCTAGTTCTA
[1]
  binding result: binds
[2]
  binding result: no binding

B2: RPS16 (dsDNA)
DNA 1: CAAACCCCGTGTAAGGGTGCCTA
DNA 2: TAGGCACCCTTACACGGGGTTTGCCTCTACGTCCTCCTGCTCC
[3]
  binding result: no binding
[4]
  Kd: 0.5 ± 0.08 nM

B3: SACCE (competitor) (dsDNA)
DNA 1: GTGTGTGGGTGTGTGGGTGTGTG
DNA 2: CACACACCCACACACCCACACAC
[1]
  binding result: binds

B4: RPL36b (dsDNA)
DNA 1: GGACAGTGGTGTAGGGGGTAGAG
DNA 2: CTCTACCCCCTACACCACTGTCCCCTCTACGTCCTCCTGCTCC
[5]
  binding result: no binding

B5: PACTA (dsDNA)
DNA 1: TGTGAGTGGTGTGAGTGGTGTGAGTGG
DNA 2: CCACTCACACCACTCACACCACTCACA
[2]
  binding result: no binding

B6: rnd2 (dsDNA)
DNA 1: AAATCTAGACATGAAAAAAAAAATGTTAGTAATCGAAATCTC
DNA 2: GAGATTTCGATTACTAACATTTTTTTTTTCATGTCTAGATTT
[6]
  binding result: no binding
[2]
  binding result: no binding

B7: DEKBR (dsDNA)
DNA 1: GGATTGGTGGATTGGTGGATTGGT
DNA 2: ACCAATCCACCAATCCACCAATCC
[6]
  binding result: no binding
[2]
  binding result: no binding

B8: CANAL (competitor) (dsDNA)
DNA 1: ACTTCTTGGTGTACGGATGTCTA
DNA 2: TAGACATCCGTACACCAAGAAGT
[7]
  binding result: binds

B9: HANPO4 (competitor) (dsDNA)
DNA 1: GGGTGGCGGGGTGGCGGGGTGGCGGGGTGGCG
DNA 2: CGCCACCCCGCCACCCCGCCACCCCGCCACCC
[2]
  binding result: no binding

B10: rnd1 (SPR) (dsDNA)
DNA 1: ACGACTCACTGTAGATACGACTCACTGTAGAT
DNA 2: ATCTACAGTGAGTCGTATCTACAGTGAGTCGTCCTCTACGTCCTCCTGCTCC
[3]
  binding result: no binding
[5]
  binding result: no binding

B11: rnd1 (competitor) (dsDNA)
DNA 1: ACGACTCACTGTAGATACGACTCACTGTAGAT
DNA 2: ATCTACAGTGAGTCGTATCTACAGTGAGTCGT
[6]
  binding result: no binding
[2]
  binding result: no binding

B12: VIIrAbs (competitor) (dsDNA)
DNA 1: GGCAGGCGGTGTAGGGATGCGGC
DNA 2: GCCGCATCCCTACACCGCCTGCC
[6]
  binding result: no binding
[7]
  binding result: binds

B13: RPS22b (dsDNA)
DNA 1: AATGTTCGGTTCGAGGAGTTCTT
DNA 2: AAGAACTCCTCGAACCGAACATTCCTCTACGTCCTCCTGCTCC
[5]
  binding result: no binding

B14: DEBHA (dsDNA)
DNA 1: GTGTTGAGGTGTAGGGATGTTGA
DNA 2: TCAACATCCCTACACCTCAACAC
[7]
  binding result: binds

B15: PICPA (dsDNA)
DNA 1: GGATGCTGGATGCTGGATGCTGGATGCT
DNA 2: AGCATCCAGCATCCAGCATCCAGCATCC
[6]
  binding result: no binding
[2]
  binding result: no binding

B16: CANAR (SPR) (dsDNA)
DNA 1: GGTGTTGGGTGTTGGGTGTTGGG
DNA 2: CCCAACACCCAACACCCAACACCCCTCTACGTCCTCCTGCTCC
[5]
  binding result: no binding

B17: RPS14 (dsDNA)
DNA 1: GTGTTCAGGTGTGAGGTGTGTTT
DNA 2: AAACACACCTCACACCTGAACACCCTCTACGTCCTCCTGCTCC
[5]
  binding result: no binding
[8]
  Kd: 0.048 ± 0.007 nM

B18: CANMA (dsDNA)
DNA 1: CTCGCTTGGTGTACGGATGCAGA
DNA 2: TCTGCATCCGTACACCAAGCGAG
[7]
  binding result: binds

B19: PICKU (SPR) (dsDNA)
DNA 1: TGAACTAGGAGCGAGGTGTGTTAC
DNA 2: GTAACACACCTCGCTCCTAGTTCACCTCTACGTCCTCCTGCTCC
[5]
  binding result: no binding
[8]
  Kd: 0.27 ± 0.08 nM

B20: CANAL (SPR) (dsDNA)
DNA 1: ACTTCTTGGTGTACGGATGTCTA
DNA 2: TAGACATCCGTACACCAAGAAGTCCTCTACGTCCTCCTGCTCC
[4]
  Kd: 0.05 ± 0.014 nM

B21: CANAR (competitor) (dsDNA)
DNA 1: GGTGTTGGGTGTTGGGTGTTGGG
DNA 2: CCCAACACCCAACACCCAACACC
[1]
  binding result: binds
[2]
  binding result: no binding
